Broadly, the Kd is the free concentration of one partner at which half of the binding sites on the other are occupied at equilibrium, for simple one-to-one binding. A higher Kd goes with weaker binding. One may read the koff as a measure of how fast the partners let go of each other. High values mean fast dissociation, low ones slow dissociation.

Consider 2 molecules from patent JPH11332594A (dated 1999).

The target in this assay is T1, ヒト可溶性CD4 (human soluble CD4 made in Example 1, C-terminal FLAG-tag, expressed in COS7 cells) (human, UniProt P01730 26-396).
T1 construct: extracellular domain; Purified on anti-FLAG-M2 gel; also called ヒトCD4抗原
The assay can be described thus: SPR, BIA-core2000; human soluble CD4 amine-coupled to CM5 chip, antibody as analyte (50 μg/ml). In general terms: SPR reads the build-up and loss of mass on a sensor chip optically.

B1: 4H5抗体 (anti-human CD4 mouse monoclonal antibody from Mouse-Mouse hybridoma 4H5, FERM P-16807) (antibody, V domains shown)
VH: QVQLQQSGPELVKPGASVKMSCKASGYTFTDYVINWLNQRTGQGLEWIGEIYPGSGSAYYNEMFKGKATLTADKSSNTAYMQLSSLTSEDSAVYFCARRGTGTGFAYWGRGTLVTVSA
VL: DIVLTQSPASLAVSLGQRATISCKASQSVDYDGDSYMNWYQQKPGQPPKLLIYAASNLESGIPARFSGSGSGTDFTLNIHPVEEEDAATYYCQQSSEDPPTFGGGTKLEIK
notes: Whole mouse monoclonal antibody from the hybridoma; also called 4H5 antibody; 抗ヒトCD4抗体(4H5抗体)
B1 came in with a Kd of 0.808 nM and a koff of 5.33e-06 s⁻¹.

B2: キメラ4H5抗体 (human-mouse chimeric anti-CD4 antibody expressed from plasmid pG14H5 in COS7 cells) (antibody, V domains shown)
VH: LQQSGPELVKPGASVKMSCKASGYTFTDYVINWLNQRTGQGLEWIGEIYPGSGSAYYNEMFKGKATLTADKSSNTAYMQLSSLTSEDSAVYFCARRGTGTGFAYWGRGTLVTVSA
VL: LTQSPASLAVSLGQRATISCKASQSVDYDGDSYMNWYQQKPGQPPKLLIYAASNLESGIPARFSGSGSGTDFTLNIHPVEEEDAATYYCQQSSEDPPTFGGGTKLEIK
notes: The human light chain constant region is not specified; also called chimeric 4H5 antibody; ヒトマウスキメラ抗CD4抗体
As to B2, the affinity, expressed as Kd, was 1.24 nM and the koff came to 2.92e-05 s⁻¹.
